Assay results from US20240158497A1 (published 2024).
Values belong to the binder of their own block, whether it stands above or below them.

Legend:
[1] = target: T1, full length (FL) human gp130 over-expressed on HEK293/Stat3-luc/gp130-2X Sort cells (human, UniProt P40189 23-918); test: FACS, 10 nM Ab, HEK293/Stat3-luc/gp130-2X Sort cells
T1 sequence: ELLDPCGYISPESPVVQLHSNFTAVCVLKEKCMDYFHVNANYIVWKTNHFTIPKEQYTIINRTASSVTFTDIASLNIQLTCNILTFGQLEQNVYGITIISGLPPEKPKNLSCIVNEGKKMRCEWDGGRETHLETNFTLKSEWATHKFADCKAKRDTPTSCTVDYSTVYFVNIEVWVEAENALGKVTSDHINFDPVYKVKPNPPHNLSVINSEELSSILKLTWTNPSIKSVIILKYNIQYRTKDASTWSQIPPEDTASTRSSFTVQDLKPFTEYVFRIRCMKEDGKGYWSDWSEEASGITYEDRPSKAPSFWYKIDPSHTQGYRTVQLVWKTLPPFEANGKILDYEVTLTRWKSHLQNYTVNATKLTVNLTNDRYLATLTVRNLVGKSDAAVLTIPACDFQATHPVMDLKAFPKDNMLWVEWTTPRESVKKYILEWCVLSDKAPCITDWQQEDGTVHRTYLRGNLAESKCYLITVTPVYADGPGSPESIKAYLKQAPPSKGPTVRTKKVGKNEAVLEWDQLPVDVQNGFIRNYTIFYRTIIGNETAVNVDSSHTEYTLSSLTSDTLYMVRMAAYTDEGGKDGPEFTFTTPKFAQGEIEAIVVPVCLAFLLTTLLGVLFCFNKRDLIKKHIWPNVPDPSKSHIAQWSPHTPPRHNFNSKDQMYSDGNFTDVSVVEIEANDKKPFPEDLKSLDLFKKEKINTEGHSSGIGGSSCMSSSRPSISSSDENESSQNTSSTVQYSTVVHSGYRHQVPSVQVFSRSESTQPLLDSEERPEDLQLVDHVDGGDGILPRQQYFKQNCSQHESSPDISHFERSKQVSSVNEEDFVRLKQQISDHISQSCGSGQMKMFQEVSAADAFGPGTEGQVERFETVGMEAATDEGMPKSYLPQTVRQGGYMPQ
From the text: (§1) In order to assess cell binding by anti-GP130 antibodies of the invention two cell lines were generated. One cell line generated was HEK293 cells stably over-expressing full length (FL) human gp130 (amino acids 1-918 of accession #P40189 with leucine at position 2 changed to valine, a natural variant) along with a luciferase reporter (Stat3-luciferase, Stat3-luc, SA Bioscience, #CLS-6028L). The cells were sorted twice using flow cytometry for high expression of gp130. It is known hereafter as HEK293/Stat3-luc/gp130-2 X Sort. IMR-32 cells (human Neuroblastoma, ATCC), were also evaluated for cell binding as these cells express gp130 endogenously and were used for bioassays. The cells used for binding were generated to stably express a luciferase reporter (Stat3-luciferase, Stat3-luc, SA Bioscience, #CLS-6028L), and are referred to hereafter as IMR-32/STAT3-Luc cells.
(§2) For the FACS analysis, 10 nM of the antibodies were used to stain 0.5×10⁶ cells/well of each cell type at 4° C. in PBS (without calcium and magnesium) containing 2% FBS for 30 minutes. IMR-32/STAT3-luc cells were incubated with 1 mg/mL mouse IgG for 30 minutes at 4° C. to block Fc receptors prior to adding the antibodies. To test whether the anti-gp130 antibody binding is specific for gp130 on the IMR-32 cells, antibodies were added to IMR-32/Stat3-luc cells with or without being pre-bound to 1000 nM of recombinant protein of the ecto-domain of human gp130 fused to myc-myc-his tag (hgp130.mmh) for 30 minutes at 25° C. […] Cells were fixed using BD CytoFix™ (Becton Dickinson, #554655) and analyzed on an IQue® (Intellicyt®) Flow Cytometer. Unstained and secondary antibody alone controls were also tested for all cell lines. The results were analyzed using ForeCyt® (IntelliCyt®) software to determine the geometric means of fluorescence for viable cells.

[2] = target: T2, human gp130 expressed endogenously on IMR-32/Stat3-luc cells (human, UniProt P40189 23-918); test: FACS, 10 nM Ab, IMR-32/Stat3-luc cells, no hGP130.mmh
T2 construct: Endogenous gp130 of the human neuroblastoma line IMR-32
T2 sequence: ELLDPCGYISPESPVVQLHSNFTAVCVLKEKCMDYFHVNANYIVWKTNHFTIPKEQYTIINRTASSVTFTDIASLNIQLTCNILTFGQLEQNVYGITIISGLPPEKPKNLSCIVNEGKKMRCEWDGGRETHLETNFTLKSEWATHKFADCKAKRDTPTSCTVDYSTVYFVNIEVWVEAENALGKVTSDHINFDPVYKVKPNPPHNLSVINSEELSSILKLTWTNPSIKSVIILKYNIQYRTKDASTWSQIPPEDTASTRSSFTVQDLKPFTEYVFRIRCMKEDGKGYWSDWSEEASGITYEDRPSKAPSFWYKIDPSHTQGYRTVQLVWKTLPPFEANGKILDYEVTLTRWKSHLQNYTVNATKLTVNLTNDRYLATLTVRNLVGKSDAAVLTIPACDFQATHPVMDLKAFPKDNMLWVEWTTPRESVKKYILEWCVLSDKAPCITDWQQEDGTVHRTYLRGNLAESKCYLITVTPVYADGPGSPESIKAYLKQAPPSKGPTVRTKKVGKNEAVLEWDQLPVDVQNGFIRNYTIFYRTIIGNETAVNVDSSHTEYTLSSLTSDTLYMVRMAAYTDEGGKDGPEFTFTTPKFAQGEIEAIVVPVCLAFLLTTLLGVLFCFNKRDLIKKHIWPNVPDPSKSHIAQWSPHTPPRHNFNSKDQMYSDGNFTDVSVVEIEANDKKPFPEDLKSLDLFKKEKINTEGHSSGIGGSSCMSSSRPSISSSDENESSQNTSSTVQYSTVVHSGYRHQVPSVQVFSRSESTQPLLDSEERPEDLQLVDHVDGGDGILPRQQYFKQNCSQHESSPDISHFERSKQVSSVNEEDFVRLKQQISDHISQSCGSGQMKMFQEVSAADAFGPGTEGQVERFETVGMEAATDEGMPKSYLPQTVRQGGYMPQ
From the text: as §1, §2

[3] = target: T3, human GP130 full length extracellular domain with C-terminal myc-myc-hexahistidine tag (human, UniProt P40189 23-619); test: Luminex, antigen captured on anti-myc beads
T3 construct: Monomeric; also called human GP130-MMH; hGP130-mmH
Experimental: (§3) Aliquots of microspheres with immobilized anti-myc monoclonal antibodies, prepared as described above, were added individually to 1 mL of the each of these protein supernatants and to 500 uL of purified GP130 protein. The microspheres were gently mixed, incubated for two hours at 25° C., washed twice with 1 mL of DBPS, centrifuged to remove the supernatant and finally resuspended in 1 mL of DPBS buffer. Forty eight μL of anti-myc IgG coupled microspheres from individual reactions with full length human GP130 and with each of the human GP130 domain proteins were withdrawn and mixed together in 3.6 mL of PBS+20 mg/mL BSA+0.05% sodium azide (blocking buffer).
(§4) From this mixed pool, 75 μL of microspheres were plated per well on a 96 well filter plate (Millipore, Cat. No: MSBVN1250) and mixed with 25 μL of individual anti-human GP130 monoclonal antibodies (0.5 or 5 μg/mL), incubated for two hours at 25° C. and then washed twice with 200 μL of DPBS with 0.05% Tween 20 (washing buffer). To detect and quantify the amounts of bound anti-GP130 antibody levels to individual microspheres, either 100 μL of 2.5 μg/mL R-Phycoerythrin conjugated goat F(ab′)2 anti-human kappa (Southern Biotech, Cat #2063-09) in blocking buffer, was added and incubated for 30 minutes at 25° C. After 30 minutes, the samples were washed twice with 200 μL of washing buffer and resuspended in 150 μL of wash buffer. The Median Fluorescence intensity (MFI) of the microspheres was measured in a Luminex Analyzer.

[4] = target: T4, human GP130 delta D1 with C-terminal myc-myc hexahistidine tag (human, UniProt P40189 124-619); test: Luminex, antigen captured on anti-myc beads
T4 construct: used as CHO supernatant; also called human GP130 delta D1-MMH; GP130 Delta D1 extracellular domain
T4 sequence (P40189 other isoform, or with tags, fused parts or gaps mutant limits assumed): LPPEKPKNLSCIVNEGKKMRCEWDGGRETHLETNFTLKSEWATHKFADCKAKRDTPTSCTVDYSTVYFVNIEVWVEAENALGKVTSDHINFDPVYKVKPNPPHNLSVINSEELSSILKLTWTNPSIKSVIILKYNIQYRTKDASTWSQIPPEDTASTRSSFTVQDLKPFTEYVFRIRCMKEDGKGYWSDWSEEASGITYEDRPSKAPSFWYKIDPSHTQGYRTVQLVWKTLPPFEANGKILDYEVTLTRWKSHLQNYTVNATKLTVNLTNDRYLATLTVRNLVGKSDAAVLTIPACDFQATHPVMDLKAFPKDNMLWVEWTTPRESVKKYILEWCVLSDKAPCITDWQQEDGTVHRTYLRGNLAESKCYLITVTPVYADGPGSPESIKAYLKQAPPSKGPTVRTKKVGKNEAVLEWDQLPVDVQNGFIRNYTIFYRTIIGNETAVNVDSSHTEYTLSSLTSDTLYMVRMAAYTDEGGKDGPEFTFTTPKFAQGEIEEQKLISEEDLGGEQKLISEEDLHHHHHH
Experimental: as §3, §4

[5] = target: T5, human GP130 delta D1-D3 with C-terminal myc-myc hexahistidine tag (human, UniProt P40189 329-619); test: Luminex, antigen captured on anti-myc beads
T5 construct: used as CHO supernatant; also called human GP130 delta D1-D3-MMH; GP130 Delta D1-D3 extracellular domain
T5 sequence (P40189 other isoform, or with tags, fused parts or gaps mutant limits assumed): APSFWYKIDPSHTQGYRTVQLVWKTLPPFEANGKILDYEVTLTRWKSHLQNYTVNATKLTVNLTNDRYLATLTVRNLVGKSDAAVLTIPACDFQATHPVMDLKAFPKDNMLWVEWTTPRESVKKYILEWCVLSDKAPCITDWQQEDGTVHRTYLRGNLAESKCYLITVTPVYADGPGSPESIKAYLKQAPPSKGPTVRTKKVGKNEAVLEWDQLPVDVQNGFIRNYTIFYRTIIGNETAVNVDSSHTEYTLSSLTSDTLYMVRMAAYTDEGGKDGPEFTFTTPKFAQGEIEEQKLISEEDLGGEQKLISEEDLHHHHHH
Experimental: as §3, §4

B2: MAb16622 (antibody, V domains shown)
VH: EVQLVESGGGVVRPGGSLRLSCTASGFTFDDYGMSWVRQAPGKGLEWVSGINWNGGRTEYADAVKGRFIISRDNAKNSLYLQMNSLRAEDTALYFCARTELRWDYWGQGTLVTVSS
VL: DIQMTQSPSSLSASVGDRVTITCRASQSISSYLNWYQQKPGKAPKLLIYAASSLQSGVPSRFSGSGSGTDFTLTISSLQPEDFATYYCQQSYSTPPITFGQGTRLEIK
notes: hIgG4 isotype control used
- MFI - Normalized to Unstained Control [1]: 91 ratio
- MFI - Normalized to Unstained Control [2]: 5 ratio
- Luminex MFI signal [3]: 18500 MFI
- Luminex MFI signal [4]: 391 MFI
- Luminex MFI signal [5]: 20 MFI

B4: MAb16636 (antibody, V domains shown)
VH: QLQLQESGPGLVKPSETLSLICTVSGGSISSNNYYWGWIRQPPGKGLEWIGNLYGSGSTYYNPSLKSRVTISVDTSKNQFSLKLSFVTAADTAVYHCARWDTNGGAFDIWGQGTMVTVSS
VL: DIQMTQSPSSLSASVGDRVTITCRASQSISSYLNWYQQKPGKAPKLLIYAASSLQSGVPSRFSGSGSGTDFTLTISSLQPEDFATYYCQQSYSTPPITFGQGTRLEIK
notes: hIgG4 isotype control used
- MFI - Normalized to Unstained Control [1]: 92 ratio
- MFI - Normalized to Unstained Control [2]: 8 ratio
- Luminex MFI signal [3]: 17600 MFI
- Luminex MFI signal [4]: 4260 MFI
- Luminex MFI signal [5]: 1070 MFI

B7: MAb16637 (antibody, V domains shown)
VH: QVQLVQSGAEVKKPGASVKVSCKASGYTFTSLGISWVRQAPGQGLEWMGWISAYSGNRDYAQKFQGRVTMTTDTSTSTAYMELRSLRSDDTAVYYCARSLRFDYWGQGTLVTVSS
VL: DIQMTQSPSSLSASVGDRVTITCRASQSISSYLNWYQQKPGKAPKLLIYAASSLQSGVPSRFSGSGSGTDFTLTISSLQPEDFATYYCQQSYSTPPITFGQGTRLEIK
notes: hIgG4 isotype control used
- MFI - Normalized to Unstained Control [1]: 121 ratio
- MFI - Normalized to Unstained Control [2]: 9 ratio
- Luminex MFI signal [3]: 16900 MFI
- Luminex MFI signal [4]: 342 MFI
- Luminex MFI signal [5]: 861 MFI

B10: MAb16623 (antibody, V domains shown)
VH: EVQLVESGGGLVQPGGSLRLSCAASGLTFSSYEMNWVRQAPGKGLEWVSHISSAGSTKYYADSVKGRFTISRDNAKNSLFLQMNSLRAEDTAIYYCAGYNYAYYYFGVDVWGQGTTVTVSS
VL: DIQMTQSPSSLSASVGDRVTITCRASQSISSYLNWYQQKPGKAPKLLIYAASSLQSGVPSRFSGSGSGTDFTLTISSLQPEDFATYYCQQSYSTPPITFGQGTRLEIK
notes: hIgG4 isotype control used
- MFI - Normalized to Unstained Control [1]: 96 ratio
- MFI - Normalized to Unstained Control [2]: 8 ratio
- Luminex MFI signal [3]: 17600 MFI
- Luminex MFI signal [4]: 12600 MFI
- Luminex MFI signal [5]: 16000 MFI

B11: MAb16618 (antibody, V domains shown)
VH: QVQLQESGPGLVKPSETLSLTCTVSGGSISNYYWTWIRQPPGKGLEWIGHISNSGTTNYNPSLKSRVTISVDTSKNQFSLKLTSVTAADTAVYYCARLPLGIAAVDTDYYYYFGMDVWGQGTTVTVSS
VL: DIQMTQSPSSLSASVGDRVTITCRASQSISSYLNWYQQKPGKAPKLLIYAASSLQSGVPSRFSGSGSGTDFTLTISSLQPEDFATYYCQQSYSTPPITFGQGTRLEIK
notes: hIgG4 isotype control used
- MFI - Normalized to Unstained Control [1]: 105 ratio
- MFI - Normalized to Unstained Control [2]: 7 ratio
- Luminex MFI signal [3]: 19000 MFI
- Luminex MFI signal [4]: 2630 MFI
- Luminex MFI signal [5]: 19 MFI

Further lines, results first:

- MFI - Normalized to Unstained Control [1]: 81 ratio
- MFI - Normalized to Unstained Control [2]: 8 ratio
- Luminex MFI signal [3]: 17100 MFI
- Luminex MFI signal [4]: 49 MFI
- Luminex MFI signal [5]: 22 MFI
B1: MAb16659 (antibody, V domains shown)
VH: QVQLVQSGPEVKKPGSSVKVSCKASGGTIDRNEITWVRQAPGQGLEWMGVIIPILGEAHYERKFQGRLTITMDESTSTAYMELSNLRSEDTAVYYCARERAARGYLDYWGQGTLVTVSS
VL: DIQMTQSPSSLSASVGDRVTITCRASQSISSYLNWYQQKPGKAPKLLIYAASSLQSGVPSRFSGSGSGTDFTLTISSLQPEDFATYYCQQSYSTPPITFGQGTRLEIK
notes: hIgG4 isotype control used

- MFI - Normalized to Unstained Control [1]: 159 ratio
- MFI - Normalized to Unstained Control [2]: 23 ratio
- Luminex MFI signal [3]: 16700 MFI
- Luminex MFI signal [4]: 7280 MFI
- Luminex MFI signal [5]: 319 MFI
B3: MAb16666 (antibody, V domains shown)
VH: EVQLVESGGGLVQSGGSLRLSCAASGFTFSRYEMNWVRQAPGKGLEWVAYISNTGTTRDYSDSVKGRFTISRDNAKNSLYLQMSSLRVEDTAVYYCVREKFSGTSDWFDPWGQGTLVTVSS
VL: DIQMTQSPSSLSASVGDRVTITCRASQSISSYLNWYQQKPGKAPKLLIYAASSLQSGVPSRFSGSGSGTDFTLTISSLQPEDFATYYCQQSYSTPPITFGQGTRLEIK
notes: hIgG4 isotype control used

- MFI - Normalized to Unstained Control [1]: 49 ratio
- MFI - Normalized to Unstained Control [2]: 5 ratio
- Luminex MFI signal [3]: 13900 MFI
- Luminex MFI signal [4]: 3050 MFI
- Luminex MFI signal [5]: 16 MFI
B5: MAb16662 (antibody, V domains shown)
VH: EVQLVESGGGLVQPGGSLRLSCTASGFTFSNYAIFWVRQAPGKGLEYVSGISNNGVTKYYADSVRDRFTISRDNSRNTVSIQMDSLRTEDMAVYYCARENWGSDDGFDIWGQGTMVTVSS
VL: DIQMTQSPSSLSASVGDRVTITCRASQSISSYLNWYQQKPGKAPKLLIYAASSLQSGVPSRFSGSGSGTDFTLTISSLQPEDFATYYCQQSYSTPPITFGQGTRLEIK
notes: hIgG4 isotype control used

- MFI - Normalized to Unstained Control [1]: 107 ratio
- MFI - Normalized to Unstained Control [2]: 10 ratio
- Luminex MFI signal [3]: 15100 MFI
- Luminex MFI signal [4]: 2340 MFI
- Luminex MFI signal [5]: 33 MFI
B6: MAb16673 (antibody, V domains shown)
VH: EVQLVQSGAEVKKPGESLKISCKGSGYSFTSYWIDWVRQMPGKGLEWMGIIYPDDSDTRYSPSFQGQVTMSVDKSISTAYLQWSSLKASDTAIYYCARHERGIVEAGTDYYYYYGMDVWGQGTTVTVSS
VL: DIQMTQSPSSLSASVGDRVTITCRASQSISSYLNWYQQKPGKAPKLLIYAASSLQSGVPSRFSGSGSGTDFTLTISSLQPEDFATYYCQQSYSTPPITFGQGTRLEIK
notes: hIgG4 isotype control used

- MFI - Normalized to Unstained Control [1]: 80 ratio
- MFI - Normalized to Unstained Control [2]: 6 ratio
- Luminex MFI signal [3]: 13800 MFI
- Luminex MFI signal [4]: 1380 MFI
- Luminex MFI signal [5]: 13 MFI
B8: MAb16682 (antibody, V domains shown)
VH: EVQLVESGGGLVQPGGSLRLSCAASGFTFSTYWMNWVRQAPGKGLEWVANIKEDGSEKYYVDSVKGRFTISRDNAKNSLYLQMNSLRAEDTAVYYCAREGFGVVTYIWGQGTMVTVSS
VL: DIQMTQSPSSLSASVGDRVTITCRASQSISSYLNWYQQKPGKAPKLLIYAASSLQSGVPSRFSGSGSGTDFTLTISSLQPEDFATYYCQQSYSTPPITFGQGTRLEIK
notes: hIgG4 isotype control used

- MFI - Normalized to Unstained Control [1]: 132 ratio
- MFI - Normalized to Unstained Control [2]: 12 ratio
- Luminex MFI signal [3]: 15900 MFI
- Luminex MFI signal [4]: 48 MFI
- Luminex MFI signal [5]: 17 MFI
B9: MAb16656 (antibody, V domains shown)
VH: EVQLVESGGGLVQPGRSLRLSCAASGFTLDDFAMHWVRQAPGKGLEWVSGISWNSGNIGYADSVKGRFTISRDNARNSLYLQMNSLRAEDTALYYCTSGYYLYYAMDVWGQGTTVTVSS
VL: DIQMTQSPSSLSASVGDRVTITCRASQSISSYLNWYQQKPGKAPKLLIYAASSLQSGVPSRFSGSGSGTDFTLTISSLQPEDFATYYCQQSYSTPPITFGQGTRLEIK
notes: hIgG4 isotype control used
